Laboratory results published in doi:10.1101/2020.10.06.327742 (bioRxiv, 2020).
The star is where a group is joined. FITC = O=C1OC2(c3ccc(O)cc3Oc3cc(O)ccc32)c2ccc(NC(=S)*)cc21

Tests used:
Assay in all cases: fluorescence polarisation
[1] = biological target: AP2 μ2 (human unless Table 5 states otherwise (cells not shown))
[2] = biological target: FITC-labelled ACE2 peptide with the predicted PTB binding motif (FITC-…-NH2) (human)
[3] = biological target: FITC-labelled C-terminal peptide of ACE2 (FITC-…-COO-) (human)
[4] = biological target: T1, SHANK1 PDZ (human unless Table 5 states otherwise …, UniProt Q9Y566 663-757)
T1 sequence: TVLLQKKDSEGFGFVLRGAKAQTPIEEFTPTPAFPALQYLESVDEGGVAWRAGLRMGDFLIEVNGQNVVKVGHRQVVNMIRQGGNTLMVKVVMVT

For “unphosphorylated ACE2 peptide (cytoplasmic tail region with the predicted AP2 μ2, NCK SH2 and ATG8 binding motifs)”, the Ki [1] was 101 µM.

With SNX17 FERM domain (domain or fragment) the Kd [2] was 200 to 300 µM.

NHERF3 PDZ1 (domain or fragment) showed a Kd [3] of 8 µM.

{FITC}-QNTDDVQTSF-OH [FITC-labelled C-terminal peptide of ACE2 (FITC-QNTDDVQTSF-COO-)] was tested, and the Kd [4] was 14 µM.
